{"source": "patent US20230265217A1", "about": "(published 2023)", "molecular_target": "SARS-CoV-2 S protein trimer (Delta B.1.617.2 India variant) [SPN-C52He] (SARS-CoV-2, UniProt P0DTC2 16-1213)", "assay": "SPR", "data": [{"binder": "3-31 (VHH) VHH: EVQLVESGGGLVQPGGSLRLSCAASGSTFSINAMGWFRQAPGKEREFVAGITSSGGYTNYADSVKGRFTISADNSKNTAYLQMNSLKPEDTAVYYCAADGVPEYSDYASGPVWGQGTLVTVSS", "values": [{"measurement": "Kd", "result": "< 0.016", "unit": "nM"}]}, {"binder": "6A-3 (VHH) VHH: EVQLVESGGGLVQPGGSLRLSCAASGFTFSPSWMGWFRQAPGKEREFVATINEYGGRNYADSVKGRFTISADNSKNTAYLQMNSLKPEDTAVYYCARVDRDFDYWGQGTLVTVSS", "values": [{"measurement": "Kd", "result": 0.449, "unit": "nM"}]}]}
